Assay results: paper PMC13376213 (2026)

T1: CCDC88B (Homo sapiens (Human), UniProt A6NC98)
T1 chain: QLEEELFQLRQGPAG

T2: HIF1A (Homo sapiens (Human), UniProt Q16665)
T2 chain: PYIPMDDDFQLRSFDQLS

T3: MFSD2B (Homo sapiens (Human), UniProt A6NFX1)
T3 chain: DVVDDFQLQHRHGPG

T4: CEP192 (Homo sapiens (Human), UniProt Q8TEP8)
T4 chain: LQPSSKASLESTSDL

T5: ROBO1 (Homo sapiens (Human), UniProt Q9Y6N7)
T5 chain: AQSKTQLEVRPV

T6: IRAG1 (Homo sapiens (Human), UniProt Q9Y6F6)
T6 chain: TNSSGKMALNSPQPG

T7: USP19 (Homo sapiens (Human), UniProt O94966)
T7 chain: PFQPGRMALESQSPG


Columns and labels:
Test in all cases: FP displacement
CCDC88B = molecular target: T1, CCDC88B
HIF1A = molecular target: T2, HIF1A
MFSD2B = molecular target: T3, MFSD2B
CEP192 = molecular target: T4, CEP192
ROBO1 = molecular target: T5, ROBO1
IRAG1 = molecular target: T6, IRAG1
USP19 = molecular target: T7, USP19

Row | Binder | Kd (CCDC88B) | Kd (HIF1A) | Kd (MFSD2B) | Kd (CEP192) | Kd (ROBO1) | Kd (IRAG1) | Kd (USP19)
1 | USP33 (protein) HLYICHTCQIEAEKIEKRRKTELEIFIRLNRAFQKEDSPATFYCISMQWFREWESFVKGKDGDPPGPIDNTKIAVTKCGNVMLRQGADSGQISEETWNFLQSIYGGGPEVILRPPV | 40.1 µM | 1.5 µM | 0.75 µM | – | – | – | –
2 | USP33 (protein) RNHCPHLDSVGEITKEDLIQKSLGTCQDCKVQGPNLWACLENRCSYVGCGESQVDHSTIHSQETKHYLTVNLTTLRVWCYACSKEVFLDRKLGTQ | – | – | – | 14.1 µM | 14 µM | 7.86 µM | 40.6 µM
